± gives the half width of the 95% confidence interval.

Data set [1] is described as follows: folding stability dG unfold from chymotrypsin proteolysis; higher = more stable. In a few lines:
(§1)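 Bayesian fitting of sequencing counts gave K50 for each design. Unfolding free energy followed by setting this against a sequence-predicted unfolded-state K50 and a shared folded-state K50, either per protease or with trypsin and chymotrypsin combined. The designs, under 80 residues and lacking cysteine, were digested in a PA-tagged cDNA display format at 11 threefold-diluted protease concentrations and without protease, and only those with AlphaFold2 dimer inter-PAE above 15 were kept.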

Data set [2] is described as follows: folding stability dG unfold (combined trypsin and chymotrypsin); higher = more stable. In a few lines:
as §1

Data set [3] is described as follows: folding stability dG unfold from trypsin proteolysis; higher = more stable. The protocol: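 Folding stability of de novo designed mini-proteins (<80 aa, no Cys; designed by TrROS, TrMRF, ProteinMPNN and the joint model) was measured by cDNA display proteolysis with trypsin and chymotrypsin. Each protease was used at 11 concentrations in a threefold dilution series plus a no-protease condition. K50 was inferred by Bayesian fitting of sequencing counts, and dG unfold was derived against a sequence-predicted unfolded-state K50 (Tsuboyama et al. method). Sequences shown include variable-length N-terminal GS-type padding (SAGGSAGG...) inside a display construct carrying a PA tag. Rows were kept only if the AF2 dimer inter-PAE was >15, to exclude likely homo-oligomers.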

Consider “ATVTITDVSFDPETNTITVTVTVTGPDGTTTTFTATFRIEPAPPPAPPAPVYVVDDDGKVYNLDTGEWKDVS [r1_270_TrROS_Hall]”, for which the “folding stability dG unfold” value in data set [1] is 2.3 ± 0.037 kcal/mol; in data set [2] it was 2.21 ± 0.054 kcal/mol; in data set [3], 2.12 ± 0.048 kcal/mol.

Regarding “ATVTVEKLPDGYRVTVTIGATYIDPETGKPVELSAPVTAFVPPEVPDPEVAAKRAAAEALAEFLAALPEGGS [r1_414_TrMRF]”, the “folding stability dG unfold” value came to 1.74 ± 0.023 kcal/mol in data set [1], 1.85 ± 0.091 kcal/mol in data set [2] and 2 ± 0.057 kcal/mol in data set [3].

“DWLIRIKFTYKGPDGNKHEMKIIVRVPESPEQAKEEVEDIARMIMEEQGYPPENIKKIKVEVIPPGEELTPS [r1_159_TrROS]”: the “folding stability dG unfold” value in data set [1] came to 4.203 ± 0.041 kcal/mol; in data set [2], 3.91 ± 0.14 kcal/mol; in data set [3], 3.46 ± 0.1 kcal/mol.

Turning to “EAFEKAIEAAIEAAEKGEKETEITLPLPDGKAIRVHATVEVKDGKPVRVDIHVELYGPNNVPYPFTLTITAS [r1_254_TrMRF]”, the “folding stability dG unfold” value in data set [1] came to 2.83 ± 0.13 kcal/mol; in data set [2], 2.38 ± 0.18 kcal/mol; in data set [3], 2.37 ± 0.13 kcal/mol.

On to “KTYTIDEIAEKLGMSKEELKNMSAEEIKEALKKLLPPEEIEKVEISYNEKDKKVTITVTLKNGEKVEITIDS [r1_340_TrROS_Hall]”, for which the “folding stability dG unfold” value in data set [1] turned out to be 5.06 ± 0.23 kcal/mol; in data set [3], 4.04 ± 0.71 kcal/mol.

“SAGGDVGLEEKAREIAEELREEISKKLGVNVKVTEVKVEYDPKTGKYTVTVTITLPGGETITITVPESAGGS [r8_372_JUSTAS]”: the “folding stability dG unfold” value was 4.36 ± 0.54 kcal/mol in data set [1] and 3.85 ± 0.32 kcal/mol in data set [3].

As to “SAGGKPKKKPPPVIEIVDIRVEYDPETKEVRITVKIRLPNGETLTLTITVPPGTTLEELLEKLKELLSSAGG [r13_578_TrROS_Hall]”, the results for the “folding stability dG unfold” value in data set [1] and in data set [3] were 2.71 ± 0.11 kcal/mol and 4.11 ± 0.61 kcal/mol, respectively.

Turning to “SAGGSAGGDPNKPPPPKQIEIPIPPDNITDVEPNPDGFYFMEFNLPDGDSITIIVYPDGNIHIMSAGGSAGG [r6_119_TrROS]”, the results for the “folding stability dG unfold” value in data set [1] and in data set [3] were 4.25 ± 0.34 kcal/mol and 2.83 ± 0.28 kcal/mol, respectively.

On to “SAGGSAGGSAGGKKKLKIKIEIKIEEKIKKTPNGKLEKEKKIEITKIIEIEPDSPLLKKLSAGGSAGGSAGG [r7_889_TrROS_Hall]”, for which the “folding stability dG unfold” value in data set [1] was 0.948 ± 0.29 kcal/mol; in data set [3], 2.17 ± 0.14 kcal/mol.

Turning to “SAGGSAGGSAGMITIYAPPSVPVEEVREEVKEKIKKENPNDPKEVKGVEVDPNGSLEELESAGGSAGGSAGG [r17_43_JUSTAS]”, the results for the “folding stability dG unfold” value in data set [1] and in data set [3] were -0.655 ± 0.31 kcal/mol and -0.286 ± 0.12 kcal/mol, respectively.

As to “SAGPKVVKIEFLEDNTAKITVEVGSKPVEVEVPVGSVFLIPGGEKIEVIEPGKAKVSPLPEVDVDPEKSAGG [r19_17_TrMRF]”, the “folding stability dG unfold” value in data set [2] is below -1 kcal/mol; in data set [3], -0.848 ± 0.33 kcal/mol.

“SAGPPNMEPVETHTFPFPGKKIKIKVYRNPDGHVKIKLEDPGKKIEQSAPVPPGEPVEIPIRLPNGKPISAG [r5_878_TrROS]”: the results for the “folding stability dG unfold” value in data set [2] and in data set [3] were below -1 kcal/mol and -0.904 ± 0.52 kcal/mol, respectively.

As for “SAGSAKELAKEIADTIADEMQDRHPGFKPTEVEVKEIEVNPENGWVKINIEMRFPNGKPIWKPEITIPSAGG [r19_53_TrROS]”, the results for the “folding stability dG unfold” value in data set [2] and in data set [3] were -0.557 ± 0.25 kcal/mol and -0.0323 ± 0.058 kcal/mol, respectively.

On to “SAGSMTVSESTENGVRTTTVTLPSRPLTVTVTFPDGKVTATTTDPAAPEAATTTPLGTPAVETLIAELSSAG [r14_716_JUSTAS]”, for which the “folding stability dG unfold” value is -0.609 ± 0.3 kcal/mol in data set [2] and 0.083 ± 0.051 kcal/mol in data set [3].

Take “SAGSPIDLGEVEVEEKPVETDPATGLTTTETVITAPDGRPVFVKYTTKDPATGTTTVTETPVGVDPELTSAG [r5_200_JUSTAS]”: the “folding stability dG unfold” value is below -1 kcal/mol in data set [2] and -0.556 ± 0.096 kcal/mol in data set [3].

Consider “SAGSSSTTIEVPVGDPAKAGSVEEYKEKLIKEGFSESDVPTATPLPDGTRLVTFKSPSTTVTLVVPLGESAG [r5_144_JUSTAS]”, for which the “folding stability dG unfold” value is -0.846 ± 0.2 kcal/mol in data set [2] and -0.341 ± 0.056 kcal/mol in data set [3].

Turning to “SAGSTVEVLEERPLEDGSVLVRVRVDDAAPDGSPVAVVDVLVLPGGEAVMTFPDGTPVRLPLSELGLPPSAG [r5_137_JUSTAS]”, the “folding stability dG unfold” value in data set [2] was -0.319 ± 0.2 kcal/mol; in data set [3], 0.108 ± 0.14 kcal/mol.

For “SAGVTVERKPGDGSLTVTVPADDGPLTIEVDLLPNTGTLKATVTYDDGTPATYTFPGGTLEDIIERLHSAGG [r19_159_TrMRF]”, the “folding stability dG unfold” value is -0.153 ± 0.22 kcal/mol in data set [2] and -0.0867 ± 0.088 kcal/mol in data set [3].

Regarding “SAKIPAEEIAEEIAENFGFEPVEVDEIDPDEGKIIIRFPGWQIEVEVDPEDGEIEIEMEFYDPEDGKPFSAG [r14_270_TrROS]”, the “folding stability dG unfold” value in data set [2] is -0.0386 ± 0.18 kcal/mol; in data set [3], 0.46 ± 0.045 kcal/mol.

The values are drawn from the supplement of paper PMC12764529.
